# B1: HA-SNAP-mGluR3-C127A (receptor, rat, UniProt P31422 23-879, looked up)
# chain: LGDHNFMRREIKIEGDLVLGGLFPINEKGTGTEECGRINEDRGIQRLEAMLFAIDEINKDNYLLPGVKLGVHILDTCSRDTYALEQSLEFVRASLTKVDEAEYMAPDGSYAIQENIPLLIAGVIGGSYSSVSIQVANLLRLFQIPQISYASTSAKLSDKSRYDYFARTVPPDFYQAKAMAEILRFFNWTYVSTVASEGDYGETGIEAFEQEARLRNICIATAEKVGRSNIRKSYDSVIRELLQKPNARVVVLFMRSDDSRELIAAANRVNASFTWVASDGWGAQESIVKGSEHVAYGAITLELASHPVRQFDRYFQSLNPYNNHRNPWFRDFWEQKFQCSLQNKRNHRQVCDKHLAIDSSNYEQESKIMFVVNAVYAMAHALHKMQRTLCPNTTKLCDAMKILDGKKLYKEYLLKINFTAPFNPNKGADSIVKFDTFGDGMGRYNVFNLQQTGGKYSYLKVGHWAETLSLDVDSIHWSRNSVPTSQCSDPCAPNEMKNMQPGDVCCWICIPCEPYEYLVDEFTCMDCGPGQWPTADLSGCYNLPEDYIKWEDAWAIGPVTIACLGFLCTCIVITVFIKHNNTPLVKASGRELCYILLFGVSLSYCMTFFFIAKPSPVICALRRLGLGTSFAICYSALLTKTNCIARIFDGVKNGAQRPKFISPSSQVFICLGLILVQIVMVSVWLILETPGTRRYTLPEKRETVILKCNVKDSSMLISLTYDVVLVILCTVYAFKTRKCPENFNEAKFIGFTMYTTCIIWLAFLPIFYVTSSDYRVQTTTMCISVSLSGFVVLGCLFAPKVHIVLFQPQKNVVTHRLHLNRFSVSGTATTYSQSSASTYVPTVCNGREVLDSTTSSL
# modifications: SNAP tag labelled with BG-LD555 (BG-LD655 in two-colour SiMPull)
# notes: mGluR3, full-length receptor with the intersubunit disulfide cysteine of the LBD mutated; source: HEK 293T, transfected, in lysate; not shown: HA, N-terminal, kept; SNAP, N-terminal, kept
# Biological target: the molecule itself
# Assay: single-molecule pulldown (SiMPull) with photobleaching step counting; HEK 293T cells surface-labelled with BG-LD555, lysed in 1.2% IGEPAL, diluted in 0.1% IGEPAL buffer; HA-SNAP constructs captured by biotinylated anti-HA antibody on NeutrAvidin/PEG slides; TIRF; percent dimerization = two-step bleaching min-max normalised (5% background, 55% for full-length mGluR2); in some experiments saturating ligands (TASP, MNI …)
protein,measurement,value
B1,fold reduction in dimerization against SNAP-mGluR3,2 fold
